± gives the standard deviation of the averaged measurements.
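Note: PSI is a weighted mean of sequencing reads over stability bins, variants kept only with over 10 reads, mCherry proximal and sfGFP distal, peptide attached via GGGS linker.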

The test system of the data set is Saccharomyces cerevisiae. In words: protein stability index of tFT-peptide fusion (C-terminal peptide) (PSI (0-1 scale)); higher = more stable (slower turnover). As to conditions: genetic background: wild type; temperature: 30 C. The method, then:
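Multiplexed protein stability (MPS) profiling in S. cerevisiae. Random 12-aa peptides (tFT-X12 library) are fused to the C-terminus of a sfGFP-mCherry tandem fluorescent timer, after mCherry and a GGGS linker. Cells are FACS-sorted into 8 mCherry/sfGFP bins and deep-sequenced. The protein stability index (PSI) is the read-weighted bin average, scaled from 0 (unstable) to 1 (stable). Only peptides with >10 reads are reported; cells were grown at 30 °C in SC-His with glucose.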
Take GSRIVCFWSGAG: the protein stability index stood at 0.717 ± 0.011.

For the sequence GSRLIGGFIVVG, the protein stability index amounted to 0.6365 ± 0.0021.

GSRPPPRPLFPS registered a protein stability index of 0.697 ± 0.048. Under GSSAVGWGGVWW stands 0.796 ± 0.11; under GSSGPCRSHVLG, 0.694 ± 0.02.

GSSYDSEISRQS came in with a protein stability index of 0.732 ± 0.0089.

Consider GSTSLILSMSPA, for which the protein stability index stood at 0.693 ± 0.027. As to GSVCVGGFGFFG, the protein stability index amounted to 0.657 ± 0.039. GSVLPPPSSPPL displayed a protein stability index of 0.704 ± 0.013. Consider GSWDEFGVYSRV, for which the protein stability index worked out at 0.6126 ± 0.0058.

With GTALERMWLEIE, the protein stability index turned out to be 0.7387 ± 0.0024. GTLGRMVTPAAW had a protein stability index of 0.6358 ± 0.0039.

GTPHSKGVGFDH: the protein stability index came out at 0.655 ± 0.048. In the case of GTRQWPARSDVV, the protein stability index was determined as 0.692 ± 0.031. GTVEDVLIFYEP had a protein stability index of 0.691 ± 0.1. In the case of GTVLSVARGWCV, the protein stability index was 0.692 ± 0.11. The result for GTWSVYSEKFVG reads 0.652 ± 0.0081; that for GVAGRRGQRDVR, 0.746 ± 0.088. As for GVARSMAGWARC, the protein stability index was determined as 0.703 ± 0.035. GVDCPGPKRDRK returned a protein stability index of 0.626 ± 0.011. Turning to GVESRSCCVFWG, the protein stability index stood at 0.72 ± 0.012. As for GVFIGWAGYKGT, the protein stability index worked out at 0.661 ± 0.027.

Regarding GVFVVEWSGGEG, the protein stability index came to 0.586 ± 0.064. GVGCVGWGSSCA gave a protein stability index of 0.673 ± 0.093.

With GVGGGRVLLLRL, the protein stability index amounted to 0.614 ± 0.042. Sequence GVGGGWVGCGVI displayed a protein stability index of 0.764 ± 0.06. Sequence GVGGVLLCCCIV showed a protein stability index of 0.573 ± 0.35. Take GVGMWCSRLRVG: the protein stability index stood at 0.5952 ± 0.00044. Under GVGRGGSSRWLG stands 0.646 ± 0.06.

Regarding GVGSVQRCGGGG, the protein stability index was determined as 0.6771 ± 0.0035. The sequence GVGVWVVLGRAG returned a protein stability index of 0.644 ± 0.031. GVGVWWRGVIMG registered a protein stability index of 0.615 ± 0.0095. The result for GVIFPQFDPCAL reads 0.788 ± 0.056; that for GVKSSRRSLHGS, 0.738 ± 0.037. Sequence GVLGGGVFGGSV registered a protein stability index of 0.631 ± 0.077.

GVLIDVFGRSAV: the protein stability index worked out at 0.696 ± 0.029. Under GVLLGSKFCQQL stands 0.641 ± 0.093. Sequence GVLPRPPPTEGT showed a protein stability index of 0.722 ± 0.041. GVLQEYIGKKQK gave a protein stability index of 0.723 ± 0.043. In turn, GVLQYPPCTYPH came in with a protein stability index of 0.675 ± 0.0078. GVLSLFGFNTVV came in with a protein stability index of 0.71 ± 0.16. Regarding GVMTGGPPGGAG, the protein stability index was found to be 0.642 ± 0.04. The sequence GVPRNSCHYPYG had a protein stability index of 0.6462 ± 0.0049. For GVPVGVDSFHGV, the protein stability index amounted to 0.66848 ± 4.1e-05.

GVRAVRSCRMQR: the protein stability index stood at 0.702 ± 0.072. For the sequence GVRCCGLCGVGV, the protein stability index stood at 0.615 ± 0.0088. GVRGKDCMGGGM yielded a protein stability index of 0.613 ± 0.063. As to GVRLRNLTIITI, the protein stability index is 0.697 ± 0.037. Sequence GVRRVVKGTKGC returned a protein stability index of 0.662 ± 0.013.

GVSCIAEGRGGL: the protein stability index was found to be 0.668 ± 0.025. GVSCIAEGRGGW showed a protein stability index of 0.7143 ± 0.00091. Sequence GVSWMRAGFEFM displayed a protein stability index of 0.779 ± 0.021. As for GVSWSWRGCCRR, the protein stability index was 0.7109 ± 0.0058. The result for GVVGVQTLIISN reads 0.653 ± 0.043. The result for GVVGWWWVRGMG reads 0.756 ± 0.023; that for GVVIGGAGYKGT, 0.633 ± 0.058; that for GVVSSSIFDLWS, 0.746 ± 0.12.

GVVVIVKYKMGV displayed a protein stability index of 0.579 ± 0.031. GVWLWVLGACRR displayed a protein stability index of 0.657 ± 0.057. Turning to GVWVRGTRRGWG, the protein stability index amounted to 0.741 ± 0.2. For the sequence GVYRGNNGSPVK, the protein stability index is 0.689 ± 0.0086. GWAIKGPFTLRS came in with a protein stability index of 0.663 ± 0.044. Turning to GWARQAADGWGG, the protein stability index worked out at 0.709 ± 0.089. GWCGGAIIRAWD: the protein stability index was determined as 0.678 ± 0.039.

The values above are taken from the supplement of paper PMC10724198.
